Measurements taken from patent US20040265797A1 (published 2004).
Ends that are not written are not given here.

These binders were tested against T1, Soluble recombinant human urokinase receptor (suPAR) (human, UniProt Q03405 23-299, biotinylated in the plate assays (sites not given)) (assay: uPAR receptor binding assay).
T1 sequence (Q03405 23-299): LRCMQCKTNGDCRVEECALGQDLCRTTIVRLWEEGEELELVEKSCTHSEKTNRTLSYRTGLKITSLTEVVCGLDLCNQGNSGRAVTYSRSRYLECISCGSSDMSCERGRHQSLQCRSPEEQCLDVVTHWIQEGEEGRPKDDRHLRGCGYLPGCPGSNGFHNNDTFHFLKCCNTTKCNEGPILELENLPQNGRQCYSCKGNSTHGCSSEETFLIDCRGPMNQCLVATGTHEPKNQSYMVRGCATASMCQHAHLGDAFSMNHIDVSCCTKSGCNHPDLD

IC50 [nM] | Binder
250 | CLNGGTAVSNKYFSNIHWCN [uPA13-32 peptide (amino acids 13-32 of human urokinase with Cys19 converted to Ala)]
10 | AEPMPHSLNFSQYLWYT-NH2 [Clone 20 peptide]
> 10000 | AESTYHHLSLGYMYTLN-NH2 [Peptide 25 (synthetic peptide of clone 25)]

Target: T1, Soluble recombinant human urokinase …
Assay: uPAR receptor binding assay
Remark: another data set of the same source

IC50 [nM] | Binder
250 | CLNGGTAVSNKYFSNIHWCN [uPA13-32 peptide (amino acids 13-32 of human urokinase with Cys19 converted to Ala)]
10 | AEPMPHSLNFSQYLWYT-NH2 [Clone 20 peptide]
> 10000 | AESTYHHLSLGYMYTLN-NH2 [Peptide 25 (synthetic peptide of clone 25)]
